Laboratory results published in patent US20230265151A1, “GIP/GLP1 CO-AGONIST COMPOUNDS” (priority 2020, published 2023).

Tests used:
Assay in all cases: cell-based or functional assay
[1] = target: human glucagon receptor (human) (UniProt P47871)
[2] = target: T1, human GIP receptor (human) (UniProt P48546)
T1 sequence (looked up): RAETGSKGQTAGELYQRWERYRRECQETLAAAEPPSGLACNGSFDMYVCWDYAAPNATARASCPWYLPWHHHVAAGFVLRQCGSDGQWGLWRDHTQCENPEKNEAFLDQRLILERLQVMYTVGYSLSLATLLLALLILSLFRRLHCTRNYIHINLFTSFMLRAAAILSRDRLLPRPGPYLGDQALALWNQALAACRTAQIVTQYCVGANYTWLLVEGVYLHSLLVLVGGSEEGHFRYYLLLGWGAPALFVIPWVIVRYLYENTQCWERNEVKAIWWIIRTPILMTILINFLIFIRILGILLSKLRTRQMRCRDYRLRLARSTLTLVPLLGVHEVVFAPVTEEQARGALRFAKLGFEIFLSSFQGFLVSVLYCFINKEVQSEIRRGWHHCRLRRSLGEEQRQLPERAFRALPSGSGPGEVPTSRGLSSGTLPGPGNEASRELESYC

hGLP-1R = hGLP-1R (Homo sapiens, UniProt P43220)

cAMP EC50 (1.0% HSA) [1]	cAMP EC50 (1.0% HSA) [2]	cAMP Emax (1.0% HSA) [2]	cAMP EC50 (1.0% HSA) (hGLP-1R)	cAMP Emax (1.0% HSA) (hGLP-1R)	Substance
> 9950 nM	0.0417 nM	91.9%	12 nM	104%	Y-Aib-EGT-αMeF(2F)-TSD-4Pal-SI-αMeL-LD-Orn-K((2-[2-(2-Amino-ethoxy)-ethoxy]-acetyl)2-(γ-Glu)-(4-(4-tert-butylphenyl)butanoyl))AQ-Aib-EFI-(D-Glu)-K((2-[2-(2-Amino-ethoxy)-ethoxy]-acetyl)2-(γ-Glu)-(4-(4-tert-butylphenyl)butanoyl))…-NH2 (peptide)
> 9950 nM	2.46 nM	81.2%	119 nM	87.8%	Y-Aib-EGT-αMeF(2F)-TSD-4Pal-SI-αMeL-LD-Orn-K((2-[2-(2-Amino-ethoxy)-ethoxy]-acetyl)2-(γ-Glu)-CO-(CH2)12-CO2H)AQ-Aib-EFI-(D-Glu)-αMeY-LIEGGK((2-[2-(2-Amino-ethoxy)-ethoxy]-acetyl)2-(γ-Glu)-CO-(CH2)12-CO2H)-NH2 (peptide)
> 9950 nM	1.22 nM	75.5%	66.6 nM	97.3%	Y-Aib-EGT-αMeF(2F)-TSD-4Pal-SI-αMeL-LD-Orn-K((2-[2-(2-Amino-ethoxy)-ethoxy]-acetyl)2-(γ-Glu)-CO-(CH2)12-CO2H)AQ-Aib-EFI-(D-Glu)-αMeY-LIEGGK((2-[2-(2-Amino-ethoxy)-ethoxy]-acetyl)2-(γ-Glu)-CO-(CH2)12-CO2H)SSG-NH2 (peptide)
> 9950 nM	1.25 nM	96.5%	34.6 nM	102%	Y-Aib-EGT-αMeF(2F)-TSD-4Pal-SI-αMeL-LD-Orn-K((2-[2-(2-Amino-ethoxy)-ethoxy]-acetyl)2-(γ-Glu)-CO-(CH2)12-CO2H)AQ-Aib-EFI-(D-Glu)-αMeY-LIEGGK((2-[2-(2-Amino-ethoxy)-ethoxy]-acetyl)2-(γ-Glu)-CO-(CH2)12-CO2H)SSG-Orn-PPP-Orn-NH2 (peptide)
> 9950 nM	1.15 nM	94.1%	40.8 nM	98.2%	Y-Aib-EGT-αMeF(2F)-TSD-4Pal-SI-αMeL-LD-Orn-K((2-[2-(2-Amino-ethoxy)-ethoxy]-acetyl)2-(γ-Glu)-CO-(CH2)12-CO2H)AQ-Aib-EFI-(D-Glu)-αMeY-LIEGGK((2-[2-(2-Amino-ethoxy)-ethoxy]-acetyl)2-(γ-Glu)-CO-(CH2)12-CO2H)SSG-Orn-PPPS-NH2 (peptide)
> 9950 nM	1.55 nM	82.8%	28.9 nM	112%	Y-Aib-EGT-αMeF(2F)-TSD-4Pal-SI-αMeL-LD-Orn-K((2-[2-(2-Amino-ethoxy)-ethoxy]-acetyl)2-(γ-Glu)-CO-(CH2)12-CO2H)AQ-Aib-EFIK((2-[2-(2-Amino-ethoxy)-ethoxy]-acetyl)2-(γ-Glu)-CO-(CH2)12-CO2H)-αMeY-LIEG-Orn-NH2 (peptide)
> 9950 nM	1.37 nM	89%	19.1 nM	106%	Y-Aib-EGT-αMeF(2F)-TSD-4Pal-SI-αMeL-LD-Orn-K((2-[2-(2-Amino-ethoxy)-ethoxy]-acetyl)2-(γ-Glu)-CO-(CH2)12-CO2H)AQ-Aib-EFIK((2-[2-(2-Amino-ethoxy)-ethoxy]-acetyl)2-(γ-Glu)-CO-(CH2)12-CO2H)-αMeY-…-NH2 (peptide)

Substance	cAMP EC50 (1.0% HSA) [1]	cAMP EC50 (1.0% HSA) [2]	cAMP Emax (1.0% HSA) [2]	cAMP EC50 (1.0% HSA) (hGLP-1R)	cAMP Emax (1.0% HSA) (hGLP-1R)
Y-Aib-EGT-αMeF(2F)-TSD-4Pal-SI-αMeL-LD-Orn-K((2-[2-(2-Amino-ethoxy)-ethoxy]-acetyl)2-(γ-Glu)-(4-(4-tert-butylphenyl)butanoyl))AQ-Aib-EFIE-K((2-[2-(2-Amino-ethoxy)-ethoxy]-acetyl)2-(γ-Glu)-(4-(4-tert-butylphenyl)butanoyl))…-NH2 (peptide)	> 9950 nM	0.0831 nM	92.4%	5.79 nM	102%
